Experiments:
[1] = biological target: T1, SARS-CoV-2 receptor-binding domain (RBD) (SARS-CoV-2 Wuhan-Hu-1 (GenBank …, UniProt P0DTC2)); assay: cell-based or functional assay
[2] = biological target: T2, SARS-CoV receptor-binding domain (RBD) (SARS-CoV (GenBank NC_004718.3), UniProt P59594); assay: SPR; conditions: both partners purified
T2 construct: also called SARS-CoV RBD; source: High Five cells (baculovirus, pAcgp67B), purified from the medium (Ni-sepharose)

[3] = biological target: T1, SARS-CoV-2 receptor-binding domain (RBD); assay: SPR; conditions: both partners purified
[4] = biological target: T1, SARS-CoV-2 receptor-binding domain (RBD); assay: SPR; conditions: both partners purified; remark: listed apart in the source
[5] = biological target: T2, SARS-CoV receptor-binding domain (RBD); assay: SPR; conditions: both partners purified; remark: listed apart in the source

Row | Binder | Fig. S4: IC50 of neutralisation, LV-SARS-CoV-2 WT [1] | Kd [2] | koff [2] | kon [2] | Kd [3] | koff [3] | kon [3] | Kd [4] | Kd [5]
1 | 7D6 monoclonal antibody (antibody, V domains shown, also called mAb 7D6; source: mouse hybridoma, ascites, purified (protein A agarose); copies: 2 + 2) VH: EVQLQQSGAELVRPGASVKLSCTASGFNIKDTYIHWVKQRPEQGLEWIGRIDPGDGDTEYDPSFQGKATITADTSSNTAYLELSSLTSEDTAVYYCTRFYDYVDYGMDYWGQGTSVTVSS VL: DIQMTQSPASLSASVGETVTITCRASGNIHNYLAWYQQKQGKSPQLLVYNAKTLADGVPSRFSGSGSGTQYSLKINSLQPEDFGSYYCQHFWSTPPWTFGGGTKLEVK | 5.98 µg/mL | 0.03 nM | 1.7e-06 s⁻¹ | 58500 M⁻¹ s⁻¹ | < 0.01 nM | 1.1e-06 s⁻¹ | 180000 M⁻¹ s⁻¹ | 0.00265 nM | 
2 | 6D6 monoclonal antibody (antibody, V domains shown, also called mAb 6D6; source: mouse hybridoma, ascites, purified (protein A agarose); copies: 2 + 2) VH: EVQLQQSGAELVKPGASVKLSCTTSGFNIIDTYMHWVKQRPEEGLEWIGGIDPVNGNSEYDPKFQDKATITADTSSNTAYLHLSRLTSEDTAVYYCASAHYYGSSSSFPYWGQGTLVTVSA VL: DIVMTQSQKFMSTSVGDRVSVTCKASQNVGTHVAWYQQKPGQSPKALIYSASYRYSGVPDRFTGSGVGTDFTLTITNVQSEDLAEYFCQQYNSYFTFGSGTKLEIK | 10.9 µg/mL | 0.37 nM | 6.3e-06 s⁻¹ | 17000 M⁻¹ s⁻¹ | 0.01 nM | 1.5e-06 s⁻¹ | 115000 M⁻¹ s⁻¹ |  | 3.72 nM

From PMC8476643 (Nature Communications, 2021)
